Laboratory results published in the MegaScale stability set (Tsuboyama et al. 2023).

B1: HEEH_KT_rd6_3632 (parent)
chain: DAEELIELVERALKEGREIILLGVRITSEEAGKWFIEWIRRFL

Variants of: B1
Assay: folding stability dG (cDNA display proteolysis); higher = more stable
Settings: PBS, room temperature

Question: With DAEELIELVERALKESREIILLGVRITSEEAGKWFIEWIRRFL [G16S] as the variant, how does the “folding stability dG” value read?
Answer: The value was 3.49 kcal/mol.

Question: With DAEELIELVERALKYGREIILLGVRITSEEAGKWFIEWIRRFL [E15Y] as the variant, how does the “folding stability dG” value read?
Answer: The value was 3.67 kcal/mol.

Question: Which “folding stability dG” value does the source give for DAEELIELVERALKVGREIILLGVRITSEEAGKWFIEWIRRFL [E15V] here?
Answer: The value was 3.57 kcal/mol.

Question: Which “folding stability dG” value does the source give for DAEELIELVERALKMGREIILLGVRITSEEAGKWFIEWIRRFL [E15M] here?
Answer: The value was 3.68 kcal/mol.

Question: With DAEELIELVERALKGGREIILLGVRITSEEAGKWFIEWIRRFL [E15G] as the variant, how does the “folding stability dG” value read?
Answer: The value was 3.31 kcal/mol.

Question: Which “folding stability dG” value does the source give for DAEELIELVERALKWGREIILLGVRITSEEAGKWFIEWIRRFL [E15W] here?
Answer: Its value is 3.95 kcal/mol.

Question: With IAEELIELVERALKEGREIILLGVRITSEEAGKWFIEWIRRFL [D1I] as the variant, how does the “folding stability dG” value read?
Answer: The value was 4.2 kcal/mol.

Question: With AAEELIELVERALKEGREIILLGVRITSEEAGKWFIEWIRRFL [D1A] as the variant, how does the “folding stability dG” value read?
Answer: The value was 3.97 kcal/mol.

Question: Which “folding stability dG” value does the source give for DAEELIELVERALKEGREIILLGVRITSEEAGKWKIEWIRRFL [F35K] here?
Answer: The value was 3.08 kcal/mol.

Question: With DAEELIELVERALKEGREIILLGVRITSEEAGKWEIEWIRRFL [F35E] as the variant, how does the “folding stability dG” value read?
Answer: Its value is 2.63 kcal/mol.

Question: Which “folding stability dG” value does the source give for DAEELIELVERALKEGREIILLGVRITSEEAGKWQIEWIRRFL [F35Q] here?
Answer: Its value is 2.85 kcal/mol.

Question: With DAEELIELVERALKEGREIILLGVRITSEEAGKWYIEWIRRFL [F35Y] as the variant, how does the “folding stability dG” value read?
Answer: The value was 3.25 kcal/mol.

Question: With DAEELIELVEPALKEGREIILLGVRITSEEAGKWFIEWIRRFL [R11P] as the variant, how does the “folding stability dG” value read?
Answer: Its value is 3.08 kcal/mol.

Question: For DAEELIELVEQALKEGREIILLGVRITSEEAGKWFIEWIRRFL [R11Q], which “folding stability dG” value is on record?
Answer: The value was 3.54 kcal/mol.

Question: For DAEELDELVERALKEGREIILLGVRITSEEAGKWFIEWIRRFL [I6D], which “folding stability dG” value is on record?
Answer: Its value is 3.2 kcal/mol.

Question: For DAEEAIELVERALKEGREIILLGVRITSEEAGKWFIEWIRRFL [L5A], which “folding stability dG” value is on record?
Answer: Its value is 2.97 kcal/mol.

Question: For DAEETIELVERALKEGREIILLGVRITSEEAGKWFIEWIRRFL [L5T], which “folding stability dG” value is on record?
Answer: The value was 3.08 kcal/mol.

Question: With DAEEPIELVERALKEGREIILLGVRITSEEAGKWFIEWIRRFL [L5P] as the variant, how does the “folding stability dG” value read?
Answer: Its value is 2.82 kcal/mol.

Question: Which “folding stability dG” value does the source give for DAEELIELVERALKEGREIILLGVRRTSEEAGKWFIEWIRRFL [I26R] here?
Answer: Its value is 3.38 kcal/mol.

Question: With DAEELIELVERALKEGREIILLGVRGTSEEAGKWFIEWIRRFL [I26G] as the variant, how does the “folding stability dG” value read?
Answer: The value was 2.89 kcal/mol.

Question: For DAEELIELVERALKEGREIILLGVRTTSEEAGKWFIEWIRRFL [I26T], which “folding stability dG” value is on record?
Answer: Its value is 3.49 kcal/mol.

Question: With DAEELIELVERALKEGREIILLGVRITSEEAGKWFIEWIRTFL [R41T] as the variant, how does the “folding stability dG” value read?
Answer: Its value is 3.63 kcal/mol.

Question: For DAEELIELVERALKEGREIILLGVRITSEEAGKWFIEWIRFFL [R41F], which “folding stability dG” value is on record?
Answer: Its value is 3.95 kcal/mol.

Question: For DAEELIELVERALKEGREIILLGVRITSEEAGKWFIEWIRWFL [R41W], which “folding stability dG” value is on record?
Answer: Its value is 4.14 kcal/mol.

Question: With DAEELIELVERALKEGREIILLGVRITSEEAGKWFIEWIRRFW [L43W] as the variant, how does the “folding stability dG” value read?
Answer: The value was 3.89 kcal/mol.

Question: For DAEELIELVERALKEGREIILLGVRITSEEAGKWFIEWIRRFM [L43M], which “folding stability dG” value is on record?
Answer: Its value is 3.81 kcal/mol.

Question: Which “folding stability dG” value does the source give for DAEELIELVERALKEGREIILLGVRITSEEAGKWFIEWIRRFQ [L43Q] here?
Answer: The value was 3.22 kcal/mol.

Question: Which “folding stability dG” value does the source give for DAEELIELVERALKEGREIILLGVRITSEEAGKWFIEWIRRFN [L43N] here?
Answer: Its value is 2.97 kcal/mol.

Question: With DAEELIELVERALKEGREIILLGVRITSEEAGKWFIEWIRRFH [L43H] as the variant, how does the “folding stability dG” value read?
Answer: The value was 3.17 kcal/mol.

Question: For DAEELIELDERALKEGREIILLGVRITSEEAGKWFIEWIRRFL [V9D], which “folding stability dG” value is on record?
Answer: Its value is 2.93 kcal/mol.

Question: With DAEELIELKERALKEGREIILLGVRITSEEAGKWFIEWIRRFL [V9K] as the variant, how does the “folding stability dG” value read?
Answer: The value was 2.75 kcal/mol.

Question: With DAEELIELPERALKEGREIILLGVRITSEEAGKWFIEWIRRFL [V9P] as the variant, how does the “folding stability dG” value read?
Answer: The value was 2.93 kcal/mol.

Question: With DAEELIELFERALKEGREIILLGVRITSEEAGKWFIEWIRRFL [V9F] as the variant, how does the “folding stability dG” value read?
Answer: The value was 3.37 kcal/mol.

Question: With DAEELILLVERALKEGREIILLGVRITSEEAGKWFIEWIRRFL [E7L] as the variant, how does the “folding stability dG” value read?
Answer: Its value is 3.91 kcal/mol.

Question: Which “folding stability dG” value does the source give for DAEELIVLVERALKEGREIILLGVRITSEEAGKWFIEWIRRFL [E7V] here?
Answer: The value was 3.74 kcal/mol.

Question: For DAEELICLVERALKEGREIILLGVRITSEEAGKWFIEWIRRFL [E7C], which “folding stability dG” value is on record?
Answer: The value was 4.46 kcal/mol.

Question: With DAEELIALVERALKEGREIILLGVRITSEEAGKWFIEWIRRFL [E7A] as the variant, how does the “folding stability dG” value read?
Answer: The value was 3.99 kcal/mol.

Question: For DAEELIRLVERALKEGREIILLGVRITSEEAGKWFIEWIRRFL [E7R], which “folding stability dG” value is on record?
Answer: The value was 4.18 kcal/mol.

Question: For DAEELINLVERALKEGREIILLGVRITSEEAGKWFIEWIRRFL [E7N], which “folding stability dG” value is on record?
Answer: The value was 3.89 kcal/mol.

Question: With DAEELIELVERALKEGREIILLGVRITSEAAGKWFIEWIRRFL [E30A] as the variant, how does the “folding stability dG” value read?
Answer: Its value is 4 kcal/mol.

Question: With DAEELIELVERALKEGREIILLGVRITGEEAGKWFIEWIRRFL [S28G] as the variant, how does the “folding stability dG” value read?
Answer: The value was 3.83 kcal/mol.

Question: With DAEELIELVERALKEGREIILLGVRITTEEAGKWFIEWIRRFL [S28T] as the variant, how does the “folding stability dG” value read?
Answer: The value was 3.71 kcal/mol.

Question: For DAEELIELVERALKEGREIILLGVRITSEEAGKPFIEWIRRFL [W34P], which “folding stability dG” value is on record?
Answer: The value was 2.66 kcal/mol.

Question: For DAEELIELVERALKEGREIILLGVRITSEEAGKMFIEWIRRFL [W34M], which “folding stability dG” value is on record?
Answer: Its value is 3.61 kcal/mol.

Question: For DAEELIELVNRALKEGREIILLGVRITSEEAGKWFIEWIRRFL [E10N], which “folding stability dG” value is on record?
Answer: Its value is 3.82 kcal/mol.

Question: Which “folding stability dG” value does the source give for DAEELIELVERALSEGREIILLGVRITSEEAGKWFIEWIRRFL [K14S] here?
Answer: The value was 3.62 kcal/mol.

Question: Which “folding stability dG” value does the source give for DAEELIELVERALWEGREIILLGVRITSEEAGKWFIEWIRRFL [K14W] here?
Answer: Its value is 3.5 kcal/mol.

Question: For DAEELIELVERALLEGREIILLGVRITSEEAGKWFIEWIRRFL [K14L], which “folding stability dG” value is on record?
Answer: The value was 3.79 kcal/mol.

Question: With DAEELIELVERALMEGREIILLGVRITSEEAGKWFIEWIRRFL [K14M] as the variant, how does the “folding stability dG” value read?
Answer: Its value is 3.48 kcal/mol.

Question: With DAEYLIELVERALKEGREIILLGVRITSEEAGKWFIEWIRRFL [E4Y] as the variant, how does the “folding stability dG” value read?
Answer: The value was 4.24 kcal/mol.

Question: Which “folding stability dG” value does the source give for DAEWLIELVERALKEGREIILLGVRITSEEAGKWFIEWIRRFL [E4W] here?
Answer: The value was 4.19 kcal/mol.

Question: With DAEELIEGVERALKEGREIILLGVRITSEEAGKWFIEWIRRFL [L8G] as the variant, how does the “folding stability dG” value read?
Answer: Its value is 3.03 kcal/mol.

Question: Which “folding stability dG” value does the source give for DAEELIETVERALKEGREIILLGVRITSEEAGKWFIEWIRRFL [L8T] here?
Answer: Its value is 3.28 kcal/mol.

Question: Which “folding stability dG” value does the source give for DAEELIELVERALKEGREIILLGVRITSQEAGKWFIEWIRRFL [E29Q] here?
Answer: The value was 3.97 kcal/mol.

Question: For DAEELIELVERALKEGREIILLGVRITSREAGKWFIEWIRRFL [E29R], which “folding stability dG” value is on record?
Answer: The value was 3.71 kcal/mol.

Question: For DAEELIELVERALKEGREIILLGVRITSLEAGKWFIEWIRRFL [E29L], which “folding stability dG” value is on record?
Answer: The value was 3.93 kcal/mol.

Question: With DAEELIELVERALKEGREIILLGVDITSEEAGKWFIEWIRRFL [R25D] as the variant, how does the “folding stability dG” value read?
Answer: Its value is 3.21 kcal/mol.

Question: Which “folding stability dG” value does the source give for DAEELIELVERALKEGREIILLGVRITSEEAGKWFIEWMRRFL [I39M] here?
Answer: The value was 3.58 kcal/mol.

Question: Which “folding stability dG” value does the source give for DAEELIELVERALKEGREIILLGVRITSEEAGKWFIEWRRRFL [I39R] here?
Answer: Its value is 2.71 kcal/mol.
